Data from patent publication US12180473B2, “Chimeric RNA-driven genomic rearrangement in mammalian cells” (priority 2018, dated 2024).
“Also recorded” adds a separate entry of the source.

Tests used:
TMPRSS2-ERG fusion [1] = assay type: cell-based, human
Method: (§1) DHT was added at the final concentration of 0.9 μM six hours post transfection. Following overnight incubation, cells were then treated with 4 μg/ml α-amanitin for various time periods (0, 2, 6, 12 and 24 hours). Cells were then revived in fresh medium containing 0.9 μM DHT without α-amanitin and RT-PCR was performed for either TMPRSS2-ERG or TMPRSS2-ETV1 fusion.

TMPRSS2-ETV1 fusion [2] = assay type: cell-based, human
Method: as §1

BCR-KCNQ2 fusion = assay: Nested RT-PCR of induced BCR-KCNQ2 fusion transcript in 293T cells; assay type: cell-based, human; conditions: for induction of BCR-KCNQ2 fusion: 293T, 3 days
From the text: FIGS. 42A-42E. BCR-KCNQ2 fusion induced in 293T cells by chimeric RNAs utilizing/excluding the SINE element for three-way junction formation. FIG. 42A. Examples of chimeric RNA design using Short Interspersed Nuclear Element (SINE) commonly present in the human genome. The designed chimeric RNA forge a three-way junction that could be formed between two SINEs in genomic DNA (in the stem) and chimeric RNA (perpendicular and below the stem). Genomic DNA stems formed by DNA repeats such as SINE/SINE repeats may constitute stems over 300 nts in length. Short lines in gray regions represent base pairings. SINEs are in crimson. FIG. 42B. […] This chimeric RNA has GC content of 52%. FIG. 42B discloses the BCR targeting sequence as SEQ ID NO: 245, the KCNQ2 targeting sequence as SEQ ID NO: 246, and the chimeric sequence as SEQ ID NO: 247. FIG. 42C. Examples of chimeric RNA design targeting DNA sequences of BCR and KCNQ2 genes in the genome which form genomic stems using regions outside of known DNA repeats such as Short Interspersed Nuclear Element (SINE). SINEs are commonly present in the human genome are shown in solid boxes. The DNA stem could range from 10 bp to >100 bp with some mismatches. FIG. 42D. […] This chimeric RNA target intron regions and has GC content of 60.4%. FIG. 42D discloses the BCR targeting sequence as SEQ ID NO: 248, the KCNQ2 targeting sequence as SEQ ID NO: 249, and the chimeric sequence as SEQ ID NO: 250. FIG. 42E. BCR-KCNQ2 fusion can be induced by chimeric RNAs that form 3-way junction with genomic stems using SINE repeats (Set1A) or outside of SINE repeats (Set1B). 293T cells were transfected with chimeric RNA expression plasmid for 3 days and then harvested for nested RT-PCR.

TMPRSS2-ERG fusion [3] = assay: RT-PCR detection of induced endogenous TMPRSS2-ERG fusion transcript in LNCaP cells expressing input RNA; conditions: for induction of endogenous TMPRSS2-ERG fusion transcript (RT-PCR): LNCaP cells transfected with input RNA plasmid, DHT for 3 days
Method: (§2) LNCaP cells were cultured in this special medium for 24 hrs prior to plasmid transfection.
(§3) Transfection was performed using Turbofect transfection reagent (Thermo Scientific, #R0531) according to manufacturer's protocol. Briefly, 1 μg of a particular plasmid was first diluted in 100 μl of the serum-free DMEM followed by immediate mixing by pipetting. 4 μl of the transfection reagent was then added to the diluted DNA followed by mixing and incubation for 20 min. The DNA/transfection reagent mixture was then added drop wise to a well containing LNCaP cells in 1 ml medium.
(§4) For treating cultured cells, concentrated DHT stock was diluted as 10× working solutions (for example, for 0.9 μM final concentration, 10× is prepared as 9.0 μM) with the appropriate complete culture medium and used immediately. […] Six hrs post transfection, 111 μl of fresh 10× DHT working solutions was added to each well of 12-wells plate containing 1 ml medium and transfected cells.
(§5) Briefly, cells were suspended in 200 μl of PBS buffer and were then lysed with 400 μl of lysis buffer. The sample was then passed through the filter assembly resulting in the binding of the nucleic acids to the filter. The filter containing nucleic acids was then incubated with DNase I dissolved in DNase incubation buffer to degrade genomic and plasmid DNAs. The column was then rinsed with wash buffer and total RNA then eluted in a new tube for further analysis.
(§6) After the addition of dNTPs, the mixture was denatured at 65° C. for 5 minutes. This was followed by the addition of a master-mix containing 1× superscript buffer, 10 mM DTT, 5 mM Magnesium chloride, RNaseOUT and Superscript III reverse transcriptase. Reactions were carried out at 50° C. for 50 minutes and then terminated by incubation at 85° C. for 5 minutes. cDNA was then treated with RNase-H for 20 minutes at 37° C. to degrade RNA in DNA/RNA hybrid. 1 μl of cDNA was used as template for each subsequent PCR reaction.
(§7) The Denaturation, Annealing and Extension steps were performed 32 cycles for induced fusion RNA and 27 cycles for input RNA.

TMPRSS2-ERG fusion [4] = system: TMPRSS2-ERG fusion
Method: as §2, §3, §4, §5, §6, §7

TMPRSS2-ETV1 fusion [5] = assay: RT-PCR detection of induced TMPRSS2-ETV1 fusion transcript in LNCaP cells; assay type: cell-based, human; conditions: LNCaP, two-round nested PCR
Method: • 1st Round: Top down PCR with TMPRSS2 ex-1 F1 and ETV1 ex-6 R1 • Denaturation 94° C., 30 sec • Annealing * , 45 sec • Extension 72° C., 60 sec
The Denaturation, Annealing and Extension steps were performed 2 cycles. • 2 cycles at each temperature: 62° C., 61° C., 60° C. . . .
Long Range PCR for Detecting Genomic DNA Fusion Junction

[6] = LNCaP, 4 μg/ml α-amanitin, 0.9 μM DHT

`CC[C@H](C)[C@@H]1NC(=O)CNC(=O)[C@@H]2Cc3c([nH]c4cc(O)ccc34)[S+]([O-])C[C@@H](NC(=O)CNC1=O)C(=O)N[C@@H](CC(N)=O)C(=O)N1C[C@H](O)C[C@H]1C(=O)N[C@@H]([C@@H](C)[C@@H](O)CO)C(=O)N2` (stereo in doubt) [α-amanitin, reference compound] was tested, and the “effect of α-amanitin treatment on TMPRSS2-ERG induction by antisense input RNA” value (TMPRSS2-ERG fusion [1]; lane 1 vs. 5) was “reduced the induction by antisense input RNAs” and the “effect of α-amanitin treatment on TMPRSS2-ETV1 induction by antisense input RNA” value (TMPRSS2-ETV1 fusion [2]; lane 11 vs. 15) was “reduced the induction by antisense input RNAs”.

B1: S1B 10-8: chimeric RNA, BCR-KCNQ2, GC content 60.4% (nucleic acid)
chain: CCAGGTGGAGCTGCCCATGCCTTCCCCGCAGGGCTGAGCCCACTCAGCCGTGAACCAAAGTCCACTAGTCCCATCAAAAGTGCTAACAGGAAGGGGGGATC
modifications: listed as DNA, further chemistry not given here
With B1 the “induction of BCR-KCNQ2 fusion” value (BCR-KCNQ2 fusion) was “induce BCR-KCNQ2 fusion in 293T cells” and the “Cell line(s) identified” value (BCR-KCNQ2 fusion; fusion gene partners BCR-KCNQ2, 293T) was 293T.

B2: Sense-2 Long: input RNA, SEQ ID NO: 3 (nucleic acid)
sense: TGTGCTCGCTTCGGCAGCACATATACTAACATTGGAACGATCCTGCAGGAGTAGGCGCGAGCTAAGCAGGAGGCGGAGGCGGAGGCGGAGGGCGAGGGGCGGGGAGCGCCGCCTGGAGCGCGGCAGGAAGCCTTATCAGTTGTGAGTGAGGACCAGTCGTTGTTTGAGTGTGCCTACGGAACGCCACACCTGGCTAAGACAGAGATGACCGCGTCCTCCTCCAGCGACTATGGACAGACTTCCAAGATGAGCCCACGCGTCCCTCAGCAGGATTGGCTGTCTCAACCCCCAGCCAGGGTCACCATCAAAATGGAATGTAACCCTAGCCAGGTGAATGGCTCAAGGAACTCTCCTGATGAATGCAGTGTGGCCAAAGGCGGGAAGATGGTGGGCAGCCCAGACACCGTTGGGATGAACTACGGCAGCTACATGGAGGAGAAGCACATGCCACCCCCAAACATGACCACGAACGAGCGCAGAGTTATCGTGCCAGCAGATCCTACGCTATGGAGTACAGACCATGTGCGGCAGTGGCTGGAGTGGGCGGTGAAAGAATATGGCCTTCCAGACGTCAACATCTTGTTATTCCAGAACATCGATGGGAAGGAACTGTGCAAGATGACCAAGGACGACTTCCAGAGGCTCACCCCCAGCTACAACGCCGACATCCTTCTCTCACATCTCCACTACCTCAGAGAGACTCCTCTTCCACATTTGACTTCAGATGATGTTGATAAAGCCTTA
For B2, the “induction of endogenous TMPRSS2-ERG fusion transcript (RT-PCR)” value (TMPRSS2-ERG fusion [3]) was “failed to induce fusion transcripts”.

B3: Sense-2: input RNA, SEQ ID NO: 2 (nucleic acid)
sense: TGTGCTCGCTTCGGCAGCACATATACTAACATTGGAACGATCCTGCAGGAGTAGGCGCGAGCTAAGCAGGAGGCGGAGGCGGAGGCGGAGGGCGAGGGGCGGGGAGCGCCGCCTGGAGCGCGGCAGGAAGCCTTATCAGTTGTGAGTGAGGACCAGTCGTTGTTTGAGTGTGCCTACGGAACGCCACACCTGGCTAAGACAGAGATGACCGCGTCCTCCTCCAGCGACTATGGACAGACTTCCAAGATGAGCCCACGCGTCCCTCAGCAGGATTGGCTGTCTCAACCCCCAGCCAGGGTCACCATCAAAATGGAATGTAACCCTAGCCAGGTGAATGGCTCAAG
For B3, the “induction of endogenous TMPRSS2-ERG fusion transcript (RT-PCR)” value (TMPRSS2-ERG fusion [3]) was “failed to induce fusion transcripts”.

B4: Sense-5: input RNA, SEQ ID NO: 29 (nucleic acid)
sense: TGTGCTCGCTTCGGCAGCACATATACTAACATTGGAACGATCCTGCAGGAGTAGGCGCGAGCTTCCATCTCTCACTCCTGTCTGGCGGAGGGCGAGGGGCGGGGAGCGCCGCCTGGAGCGCGGCAGGTGAGCGGCGGATTGGCTGTCTCAACCCCCAGCCAGGGTCACCATCAAAATGGAATGTAACCCTAGCCAGGTGAATGGCTCAAG
In the case of B4, the “α-amanitin treatment time after which sense input RNA began to induce TMPRSS2-ERG” value (TMPRSS2-ERG fusion [1]; [6]) is reported as 12 h and the “induction of endogenous TMPRSS2-ERG fusion transcript (RT-PCR)” value (TMPRSS2-ERG fusion [3]) is reported as “fails to induce TMPRSS2-ERG gene fusion”.

B5: Antisense-2: input RNA, SEQ ID NO: 5 (nucleic acid)
antisense: TGTGCTCGCTTCGGCAGCACATATACTAACATTGGAACGATCCTGCAGCTTGAGCCATTCACCTGGCTAGGGTTACATTCCATATTGATGGTGACCCTGGCTGGGGGTTGAGACAGCCAATCCTGCTGAGGGACGCGTGGGCTCATCTTGGAAGTCTGTCCATAGTCGCTGGAGGAGGACGCGGTCATCTCTGTCTTAGCCAGGTGTGGCGTTCCGTAGGCACACTCAAACAACGACTGGTCCTCACTCACAACTGATAAGGCTTCCTGCCGCGCTCCAGGCGGCGCTCCCCGCCCCTCGCCCTCCGCCTCCGCCTCCGCCTCCTGCTTAGCTCGCGCCTACTC
For B5, the “induction with U6 promoter compared to CMV promoter” value (TMPRSS2-ERG fusion [4]) was “more pronounced”, the “induction of endogenous TMPRSS2-ERG fusion transcript (RT-PCR)” value (TMPRSS2-ERG fusion [3]) was “induced a clear band of 721 bp; also recorded: capable of inducing the fusion transcript” and the “Cell line(s) identified” value (TMPRSS2-ERG fusion [3]; fusion gene partners TMPRSS2-ERG, LNCaP) was “LNCaP”.

B6: SEQ ID NO: 247: chimeric RNA utilizing the SINE element to induce BCR-KCNQ2 fusion, GC content 52% (S1A 200-1 or S1A 200-2) (nucleic acid)
chain: AGCAGGGGGGGCGGTGTCCACACATCCTCACTACGCTGATTTGCCATTTGACTTACACAGTGCAACTCATGTGTTACCAGCCTTCACTGTTCTGACAGCT
modifications: listed as DNA, further chemistry not given here
With B6 the “induction of BCR-KCNQ2 fusion” value (BCR-KCNQ2 fusion) was “induce BCR-KCNQ2 fusion”.

B7: Sense-TMPRSS2-ETV1-A1: input RNA, SEQ ID NO: 42 (nucleic acid)
sense: TGTGCTCGCTTCGGCAGCACATATACTAACATTGGAACGATCCTGCAGCCAGTTGGTGGAAGAGAGTCCCCCGGGGTCCCCAAAGCTGGCTCCTAGTCTACTGAATCTAACTAAGACTTTAACTTGGAACGATTTACATAATGCGGCA
With B7 the “α-amanitin treatment time after which sense input RNA began to induce TMPRSS2-ETV1 fusion” value (TMPRSS2-ETV1 fusion [2]; [6]) was 24 h and the “induction of TMPRSS2-ETV1 fusion transcript (RT-PCR)” value (TMPRSS2-ETV1 fusion [5]) was “failed to induce fusion transcript”.

B8: Antisense-C2: input RNA, SEQ ID NO: 19 (nucleic acid)
antisense: TGTGCTCGCTTCGGCAGCACATATACTAACATTGGAACGATCCTGCAGTGAGCTCATGCTATTCCTATGACATAGATGAGCACTGGGTAGACCCCGTCCTGGTAACACTATTCATGCACTAACCAGCACTCCCAGTCCTCCTCCCCAAAGAGAAAAGGCGCACCGGTGCTCCCAG
For B8, the “induction of endogenous TMPRSS2-ERG fusion transcript (RT-PCR)” value (TMPRSS2-ERG fusion [3]) was “complete loss of induction”.

B9: Antisense-B3: input RNA, SEQ ID NO: 17 (nucleic acid)
antisense: TGTGCTCGCTTCGGCAGCACATATACTAACATTGGAACGATCCTGCAGTGGGGAGCATTTCCAGATGGAGAAACTGCAAGGAAAAGCATAGAAGTGGGGCCACCCCTCGTGAGCTGGGGAGGGCTCACCTGCCGCGCTCCAGGCGGCGCTCCCCGCCCCTCGCCCTCCGCCTCCG
B9 was tested, and the “induction of endogenous TMPRSS2-ERG fusion transcript (RT-PCR)” value (TMPRSS2-ERG fusion [3]) was “complete loss of induction”.
